Test results reported in paper PMC10526015.
Values belong to the substance of their own block, whether it stands above or below them.

Experiments:
[1] = molecular target: FcγR on THP-1 cells (FcγRI and FcγRII); experiment: flow cytometry on cells; THP-1 cells; ~100 nM IgG pre-complexed with 10 nM CD3ε-BSA (CD3ε peptide 21–47 on BSA) 20 min RT, highly avid; 30 min on ice; goat anti-human IgG PE; median fluorescence intensity
[2] = molecular target: FcγR on THP-1 cells (FcγRI and FcγRII); experiment: flow cytometry on cells; THP-1 cells, 100 nM uncomplexed IgG, 30 min on ice, PBSF; goat anti-human IgG R-PE; median fluorescence intensity
[3] = molecular target: FcγR on THP-1 cells (FcγRI and FcγRII); experiment: as above; remark: listed apart in the source
[4] = molecular target: ADI-26906 IgG1 LALE-P331S (L234A/L235E/P331S) (human); experiment: SPR; Biacore 8K or 8K+, 25 °C, HBS-EP+ pH 7.4; IgG captured (400–425 RU) by goat anti-human Fc on CM5; human FcγRI 100 nM injected; response units at one concentration
[5] = molecular target: ADI-26906 IgG1 LALA-P331S (L234A/L235A/P331S) (human); experiment: as above
[6] = molecular target: ADI-26906 IgG1 LALA-A327G (L234A/L235A/A327G) (human); experiment: as above
[7] = molecular target: ADI-26906 IgG1 LALE-K322A (L234A/L235E/K322A) (human); experiment: as above
[8] = molecular target: ADI-26906 IgG1 LALA-D270A (L234A/L235A/D270A) (human); experiment: as above
[9] = molecular target: ADI-26906 IgG1 LALE-H268Q (L234A/L235E/H268Q) (human); experiment: as above
[10] = molecular target: ADI-26906 IgG1 L234A/L235A (human); experiment: as above
[11] = molecular target: ADI-26906 IgG1 LALE-A330S/P331S (L234A/L235E/A330S/P331S) (human); experiment: as above
[12] = molecular target: ADI-26906 IgG1 LALA-K322A (L234A/L235A/K322A) (human); experiment: as above
[13] = molecular target: ADI-26906 IgG1 LALA-H268Q (L234A/L235A/H268Q) (human); experiment: as above
[14] = molecular target: ADI-26906 IgG1 LALA-Y296F (L234A/L235A/Y296F) (human); experiment: as above
[15] = molecular target: ADI-26906 IgG1 LALE-L328A (L234A/L235E/L328A) (human); experiment: as above
[16] = molecular target: ADI-26906 IgG1 LALA-L309A (L234A/L235A/L309A) (human); experiment: as above
[17] = molecular target: ADI-26906 IgG1 LALE-L309A (L234A/L235E/L309A) (human); experiment: as above
[18] = molecular target: ADI-26906 IgG1 LALA-A330S/P331S (L234A/L235A/A330S/P331S) (human); experiment: as above
[19] = molecular target: ADI-26906 IgG1 L234A/L235E (human); experiment: as above
[20] = molecular target: ADI-26906 IgG1 LALE-A330S (L234A/L235E/A330S) (human); experiment: as above
[21] = molecular target: ADI-26906 IgG1 LALA-L309V (L234A/L235A/L309V) (human); experiment: as above
[22] = molecular target: ADI-26906 IgG1 LALE-L309V (L234A/L235E/L309V) (human); experiment: as above
[23] = molecular target: ADI-26906 IgG1 LALA-L328A (L234A/L235A/L328A) (human); experiment: as above
[24] = molecular target: ADI-26906 IgG1 LALA-A330S (L234A/L235A/A330S) (human); experiment: as above
[25] = molecular target: ADI-26906 IgG1 LALE-D270A (L234A/L235E/D270A) (human); experiment: as above
[26] = molecular target: ADI-26906 IgG1 LALE-D265A (L234A/L235E/D265A) (human); experiment: bead-based flow cytometry (Dynal bead assay); biotinylated CD3ε peptide on streptavidin Dyna Beads, saturated with antibody; beads incubated with C1q alone or with C1q and human complement C3, 25 min RT, PBSF; anti-C1q APC and anti-C3 PE
[27] = molecular target: ADI-26906 IgG1 LALA-D265A (L234A/L235A/D265A) (human); experiment: as above
Chain of ADI-26906 IgG1 LALA-D265A (L234A/L235A/D265A) (human) (heavy, as listed by the source, chain 1 of 2): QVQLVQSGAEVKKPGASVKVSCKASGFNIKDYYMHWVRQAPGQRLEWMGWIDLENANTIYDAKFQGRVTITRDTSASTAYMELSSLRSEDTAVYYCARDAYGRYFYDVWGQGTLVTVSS
Chain of ADI-26906 IgG1 LALA-D265A (L234A/L235A/D265A) (human) (light, as listed by the source, chain 2 of 2): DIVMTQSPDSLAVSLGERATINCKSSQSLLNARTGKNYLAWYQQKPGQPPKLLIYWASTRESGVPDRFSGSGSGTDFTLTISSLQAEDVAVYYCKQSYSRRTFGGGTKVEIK

Chain of ADI-26906 IgG1 LALA-L309V (L234A/L235A/L309V) (human) (heavy, as listed by the source, chain 1 of 2): as the sequence (heavy, as listed by the source, chain 1 of 2) above
Chain of ADI-26906 IgG1 LALA-L309V (L234A/L235A/L309V) (human) (light, as listed by the source, chain 2 of 2): as the sequence (light, as listed by the source, chain 2 of 2) above
Chain of ADI-26906 IgG1 LALA-H268Q (L234A/L235A/H268Q) (human) (heavy, as listed by the source, chain 1 of 2): as the sequence (heavy, as listed by the source, chain 1 of 2) above
Chain of ADI-26906 IgG1 LALA-H268Q (L234A/L235A/H268Q) (human) (light, as listed by the source, chain 2 of 2): as the sequence (light, as listed by the source, chain 2 of 2) above
Chain of ADI-26906 IgG1 LALE-A330S/P331S (L234A/L235E/A330S/P331S) (human) (heavy, as listed by the source, chain 1 of 2): as the sequence (heavy, as listed by the source, chain 1 of 2) above
Chain of ADI-26906 IgG1 LALE-A330S/P331S (L234A/L235E/A330S/P331S) (human) (light, as listed by the source, chain 2 of 2): as the sequence (light, as listed by the source, chain 2 of 2) above
Chain of ADI-26906 IgG1 L234A/L235A (human) (heavy, as listed by the source, chain 1 of 2): as the sequence (heavy, as listed by the source, chain 1 of 2) above
Chain of ADI-26906 IgG1 L234A/L235A (human) (light, as listed by the source, chain 2 of 2): as the sequence (light, as listed by the source, chain 2 of 2) above
Chain of ADI-26906 IgG1 LALA-A330S (L234A/L235A/A330S) (human) (heavy, as listed by the source, chain 1 of 2): as the sequence (heavy, as listed by the source, chain 1 of 2) above
Chain of ADI-26906 IgG1 LALA-A330S (L234A/L235A/A330S) (human) (light, as listed by the source, chain 2 of 2): as the sequence (light, as listed by the source, chain 2 of 2) above
Chain of ADI-26906 IgG1 L234A/L235E (human) (heavy, as listed by the source, chain 1 of 2): as the sequence (heavy, as listed by the source, chain 1 of 2) above
Chain of ADI-26906 IgG1 L234A/L235E (human) (light, as listed by the source, chain 2 of 2): as the sequence (light, as listed by the source, chain 2 of 2) above
Chain of ADI-26906 IgG1 LALE-L309A (L234A/L235E/L309A) (human) (heavy, as listed by the source, chain 1 of 2): as the sequence (heavy, as listed by the source, chain 1 of 2) above
Chain of ADI-26906 IgG1 LALE-L309A (L234A/L235E/L309A) (human) (light, as listed by the source, chain 2 of 2): as the sequence (light, as listed by the source, chain 2 of 2) above
Chain of ADI-26906 IgG1 LALE-D265A (L234A/L235E/D265A) (human) (heavy, as listed by the source, chain 1 of 2): as the sequence (heavy, as listed by the source, chain 1 of 2) above
Chain of ADI-26906 IgG1 LALE-D265A (L234A/L235E/D265A) (human) (light, as listed by the source, chain 2 of 2): as the sequence (light, as listed by the source, chain 2 of 2) above
Chain of ADI-26906 IgG1 LALA-L309A (L234A/L235A/L309A) (human) (heavy, as listed by the source, chain 1 of 2): as the sequence (heavy, as listed by the source, chain 1 of 2) above
Chain of ADI-26906 IgG1 LALA-L309A (L234A/L235A/L309A) (human) (light, as listed by the source, chain 2 of 2): as the sequence (light, as listed by the source, chain 2 of 2) above
Chain of ADI-26906 IgG1 LALE-P331S (L234A/L235E/P331S) (human) (heavy, as listed by the source, chain 1 of 2): as the sequence (heavy, as listed by the source, chain 1 of 2) above
Chain of ADI-26906 IgG1 LALE-P331S (L234A/L235E/P331S) (human) (light, as listed by the source, chain 2 of 2): as the sequence (light, as listed by the source, chain 2 of 2) above
Chain of ADI-26906 IgG1 LALE-L309V (L234A/L235E/L309V) (human) (heavy, as listed by the source, chain 1 of 2): as the sequence (heavy, as listed by the source, chain 1 of 2) above
Chain of ADI-26906 IgG1 LALE-L309V (L234A/L235E/L309V) (human) (light, as listed by the source, chain 2 of 2): as the sequence (light, as listed by the source, chain 2 of 2) above
Chain of ADI-26906 IgG1 LALE-K322A (L234A/L235E/K322A) (human) (heavy, as listed by the source, chain 1 of 2): as the sequence (heavy, as listed by the source, chain 1 of 2) above
Chain of ADI-26906 IgG1 LALE-K322A (L234A/L235E/K322A) (human) (light, as listed by the source, chain 2 of 2): as the sequence (light, as listed by the source, chain 2 of 2) above
Chain of ADI-26906 IgG1 LALE-D270A (L234A/L235E/D270A) (human) (heavy, as listed by the source, chain 1 of 2): as the sequence (heavy, as listed by the source, chain 1 of 2) above
Chain of ADI-26906 IgG1 LALE-D270A (L234A/L235E/D270A) (human) (light, as listed by the source, chain 2 of 2): as the sequence (light, as listed by the source, chain 2 of 2) above
Chain of ADI-26906 IgG1 LALE-L328A (L234A/L235E/L328A) (human) (heavy, as listed by the source, chain 1 of 2): as the sequence (heavy, as listed by the source, chain 1 of 2) above
Chain of ADI-26906 IgG1 LALE-L328A (L234A/L235E/L328A) (human) (light, as listed by the source, chain 2 of 2): as the sequence (light, as listed by the source, chain 2 of 2) above
Chain of ADI-26906 IgG1 LALA-D270A (L234A/L235A/D270A) (human) (heavy, as listed by the source, chain 1 of 2): as the sequence (heavy, as listed by the source, chain 1 of 2) above
Chain of ADI-26906 IgG1 LALA-D270A (L234A/L235A/D270A) (human) (light, as listed by the source, chain 2 of 2): as the sequence (light, as listed by the source, chain 2 of 2) above
Chain of ADI-26906 IgG1 LALA-A327G (L234A/L235A/A327G) (human) (heavy, as listed by the source, chain 1 of 2): as the sequence (heavy, as listed by the source, chain 1 of 2) above
Chain of ADI-26906 IgG1 LALA-A327G (L234A/L235A/A327G) (human) (light, as listed by the source, chain 2 of 2): as the sequence (light, as listed by the source, chain 2 of 2) above
Chain of ADI-26906 IgG1 LALA-P331S (L234A/L235A/P331S) (human) (heavy, as listed by the source, chain 1 of 2): as the sequence (heavy, as listed by the source, chain 1 of 2) above
Chain of ADI-26906 IgG1 LALA-P331S (L234A/L235A/P331S) (human) (light, as listed by the source, chain 2 of 2): as the sequence (light, as listed by the source, chain 2 of 2) above

MFI [1]: 4440 MFI
Substance: ADI-26906 IgG1 LALA-A330S (L234A/L235A/A330S) (antibody)

MFI [1]: 4390 MFI
Substance: ADI-26906 IgG1 LALA-K322A (L234A/L235A/K322A) (antibody)

MFI [2]: 140 MFI
Substance: ADI-26906 IgG1 L234A/L235K (antibody)

MFI [1]: 2270 MFI
Substance: ADI-26906 IgG1 LALA-D270A (L234A/L235A/D270A) (antibody)

MFI [2]: 192 MFI
Substance: ADI-26906 IgG1 L235A/G237A (antibody)

MFI [2]: 192 MFI
MFI [1]: 5300 MFI
MFI [3]: 127 MFI
Substance: ADI-26906 IgG1 L234A/L235E (antibody)

MFI [2]: 491 MFI
MFI [1]: 5270 MFI
MFI [3]: 270 MFI
Substance: ADI-26906 IgG1 L234A/L235A (antibody)

response (RU) [4]: 3.3 RU
response (RU) [5]: 17.7 RU
response (RU) [6]: 14.3 RU
response (RU) [7]: 4.6 RU
response (RU) [8]: 9.7 RU
response (RU) [9]: 4.3 RU
response (RU) [10]: 23.5 RU
response (RU) [11]: 2.6 RU
response (RU) [12]: 19.9 RU
response (RU) [13]: 22.9 RU
response (RU) [14]: 19.1 RU
response (RU) [15]: 3.5 RU
response (RU) [16]: 21.6 RU
response (RU) [17]: 4.2 RU
response (RU) [18]: 15.8 RU
response (RU) [19]: 3.8 RU
response (RU) [20]: 3.3 RU
response (RU) [21]: 25.2 RU
response (RU) [22]: 4.9 RU
response (RU) [23]: 13.6 RU
response (RU) [24]: 19.9 RU
response (RU) [25]: 1.8 RU
Substance: human FcγRI (CD64) (from UniProt P12314 16-374) (receptor)

MFI [1]: 3540 MFI
Substance: ADI-26906 IgG1 LALE-L309V (L234A/L235E/L309V) (antibody)

MFI [1]: 3810 MFI
Substance: ADI-26906 IgG1 LALA-Y296F (L234A/L235A/Y296F) (antibody)

MFI [2]: 176 MFI
Substance: ADI-26906 IgG1 L234E/L235K (antibody)

MFI [1]: 4000 MFI
Substance: ADI-26906 IgG1 LALE-H268Q (L234A/L235E/H268Q) (antibody)

MFI [2]: 184 MFI
Substance: ADI-26906 IgG1 L234A/G237A (antibody)

MFI [1]: 546 MFI
Substance: ADI-26906 IgG1 LALE-D270A (L234A/L235E/D270A) (antibody)

MFI [1]: 4850 MFI
Substance: ADI-26906 IgG1 LALA-L309V (L234A/L235A/L309V) (antibody)

MFI [1]: 4790 MFI
Substance: ADI-26906 IgG1 LALA-L309A (L234A/L235A/L309A) (antibody)

C1q Dynal FACS MFI [26]: 2280 MFI
C1q Dynal FACS MFI [27]: 1950 MFI
Substance: human complement C1q (complex)

MFI [1]: 7010 MFI
Substance: ADI-26906 IgG1 LALA-A327G (L234A/L235A/A327G) (antibody)

MFI [2]: 369 MFI
Substance: ADI-26906 IgG1 L234F/L235E (antibody)

MFI [2]: 150 MFI
Substance: ADI-26906 IgG1 L234A/L235A/G237A (antibody)

MFI [1]: 6420 MFI
Substance: ADI-26906 IgG1 LALA-L328A (L234A/L235A/L328A) (antibody)

MFI [1]: 2320 MFI
Substance: ADI-26906 IgG1 LALE-K322A (L234A/L235E/K322A) (antibody)

MFI [1]: 1760 MFI
Substance: ADI-26906 IgG1 LALE-P331S (L234A/L235E/P331S) (antibody)

MFI [2]: 386 MFI
Substance: ADI-26906 IgG1 L234F/L235K (antibody)

MFI [1]: 4220 MFI
Substance: ADI-26906 IgG1 LALA-P331S (L234A/L235A/P331S) (antibody)

MFI [1]: 3840 MFI
Substance: ADI-26906 IgG1 LALA-A330S/P331S (L234A/L235A/A330S/P331S) (antibody)

MFI [1]: 2260 MFI
Substance: ADI-26906 IgG1 LALE-A330S (L234A/L235E/A330S) (antibody)

MFI [1]: 1390 MFI
Substance: ADI-26906 IgG1 LALE-A330S/P331S (L234A/L235E/A330S/P331S) (antibody)

MFI [1]: 2760 MFI
Substance: ADI-26906 IgG1 LALE-L309A (L234A/L235E/L309A) (antibody)

MFI [1]: 7040 MFI
Substance: ADI-26906 IgG1 LALE-L328A (L234A/L235E/L328A) (antibody)

MFI [1]: 4800 MFI
Substance: ADI-26906 IgG1 LALA-H268Q (L234A/L235A/H268Q) (antibody)
